Holding throughout (experiment): EMSA
The subject of series [1] is Hfq K56A (Escherichia coli K-12 MG1655). The following applies: EMSA: 20 mM Tris-HCl pH 7.6, 0.5 M NaCl, 1 mM EDTA, 1% glycerol, 20 min at 25 C, native PAGE in 0.5x TBE at 4 C.
Series [2] deals with Hfq Y25D* (Escherichia coli K-12 MG1655). The following applies: EMSA: 20 mM Tris-HCl pH 7.6, 0.5 M NaCl, 1 mM EDTA, 1% glycerol, 20 min at 25 C, native PAGE in 0.5x TBE at 4 C.
Series [3] has as its system Hfq H57A (Escherichia coli K-12 MG1655). The following applies: EMSA: 20 mM Tris-HCl pH 7.6, 0.5 M NaCl, 1 mM EDTA, 1% glycerol, 20 min at 25 C, native PAGE in 0.5x TBE at 4 C.
Series [4] has as its system Hfq K56A/H57A (Escherichia coli K-12 MG1655). The following applies: EMSA: 20 mM Tris-HCl pH 7.6, 0.5 M NaCl, 1 mM EDTA, 1% glycerol, 20 min at 25 C, native PAGE in 0.5x TBE at 4 C.
Series [5] concerns Hfq Q8A (Escherichia coli K-12 MG1655). Particulars: EMSA: 20 mM Tris-HCl pH 7.6, 0.5 M NaCl, 1 mM EDTA, 1% glycerol, 20 min at 25 C, native PAGE in 0.5x TBE at 4 C.
Series [6] addresses Hfq Q8A Q8A (Escherichia coli K-12 MG1655) (UniProt P0A6X3). Particulars: EMSA: 20 mM Tris-HCl pH 7.6, 0.5 M NaCl, 1 mM EDTA, 1% glycerol, 20 min at 25 C; native PAGE in 0.5x TBE at 4 C.
In series [7] the target is Hfq K56A/H57A K56A;H57A (Escherichia coli K-12 MG1655) (UniProt P0A6X3). The following applies: EMSA: 20 mM Tris-HCl pH 7.6, 0.5 M NaCl, 1 mM EDTA, 1% glycerol, 20 min at 25 C; native PAGE in 0.5x TBE at 4 C.
Series [8] addresses Hfq Y25D* Y25D (Escherichia coli K-12 MG1655) (UniProt P0A6X3). Particulars: EMSA: 20 mM Tris-HCl pH 7.6, 0.5 M NaCl, 1 mM EDTA, 1% glycerol, 20 min at 25 C; native PAGE in 0.5x TBE at 4 C.
Series [9] addresses Hfq H57A H57A (Escherichia coli K-12 MG1655) (UniProt P0A6X3). The following applies: EMSA: 20 mM Tris-HCl pH 7.6, 0.5 M NaCl, 1 mM EDTA, 1% glycerol, 20 min at 25 C; native PAGE in 0.5x TBE at 4 C.
In series [10] the target is Hfq K56A K56A (Escherichia coli K-12 MG1655) (UniProt P0A6X3). The following applies: EMSA: 20 mM Tris-HCl pH 7.6, 0.5 M NaCl, 1 mM EDTA, 1% glycerol, 20 min at 25 C; native PAGE in 0.5x TBE at 4 C.

Consider DsrA, for which the binding signal (% of WT Hfq binding) in series [1] (43/174 nM Hfq monomer) came to 24.4; in series [2] (43/174 nM Hfq monomer) it was 163; in series [3] (43/174 nM Hfq monomer), 66.5; in series [4] (43/174 nM Hfq monomer) it was 13.2; in series [5] (43/174 nM Hfq monomer) it was 46.9.

With “GGGAACACAUCAGAUUUCCUGGUGUAACGAAUUUUUUAAGUGCUUCUUGCUUAAGCAAGUUUCAUCCCGACCCCCUCAGGGUCGGGAUUU [DsrA]”, the binding signal (% of WT Hfq binding) in series [6] was 46.9; in series [7] it was 13.2; in series [8], 163; in series [9], 66.5; in series [10], 24.4.

For RNA I FL, the binding signal (% of WT Hfq binding) was 36.1 in series [1] (130/260 nM Hfq monomer); 125 in series [2] (130/260 nM Hfq monomer); 72.7 in series [3] (130/260 nM Hfq monomer); 13.8 in series [4] (130/260 nM Hfq monomer); 86.5 in series [5] (130/260 nM Hfq monomer).

(Values after paper PMC11012335.)
